{"source": "paper PMC4119789", "target": "H3K4AK9me2 peptide", "assay": "ITC", "data": [{"binder": "SAWADEE domain of atSHH1 (residues 125-258) (domain or fragment) ADLAFEAKSARDYAWYDVSSFLTYRVLRTGELEVRVRFSGFDNRHDEWVNVKTSVRERSIPVEPSECGRVNVGDLLLCFQEREDQALYCDGHVLNIKRGIHDHARCNCVFLVRYELDNTEESLGLERICRRPEE", "values": [{"measurement": "fold weaker affinity than for the H3K9me2 peptide", "value": 30, "unit": "fold"}]}]}
